Like-named read-outs stand apart in the source and are kept apart here.
Legend:
[1] = molecular target: RSV-F protein of RSV A Long virus (as carried by the live virus in the neutralisation assay) (human respiratory syncytial virus, strain A Long) (UniProt P12568); assay: cell-based or functional assay
[2] = molecular target: RSV-F protein of RSV A2 virus (as carried by the live virus in the neutralisation assay) (human respiratory syncytial virus, strain A2) (UniProt P03420); assay: cell-based or functional assay
[3] = molecular target: RSV-F protein of RSV B9320 virus (as carried by the live virus in the neutralisation assay) (human respiratory syncytial virus, strain B9320); assay: cell-based or functional assay
[4] = molecular target: RSV-F protein of RSV A Long virus (as carried by the live virus in the neutralisation assay) (human respiratory syncytial virus, strain A Long) (UniProt P12568); assay: cell-based or functional assay; remark: listed apart in the source
[5] = molecular target: RSV-F protein of RSV A2 virus (as carried by the live virus in the neutralisation assay) (human respiratory syncytial virus, strain A2) (UniProt P03420); assay: cell-based or functional assay; remark: listed apart in the source
[6] = molecular target: RSV-F protein of RSV B9320 virus (as carried by the live virus in the neutralisation assay) (human respiratory syncytial virus, strain B9320); assay: cell-based or functional assay; remark: listed apart in the source
[7] = molecular target: recombinant RSV-F protein (RSV A2 strain fusion (F) protein with added His tag) (human respiratory syncytial virus, A2 strain) (UniProt P03420); assay: SPR (Biacore), antibody captured, RSV-F as analyte
[8] = molecular target: recombinant RSV-F protein (RSV A2 strain fusion (F) protein with added His tag) (human respiratory syncytial virus, A2 strain) (UniProt P03420); assay: SPR (Biacore), antibody captured, RSV-F as analyte; column head prints nM, Kd/Ka gives M

Sequence of RSV-F protein of RSV A2 virus (as carried by the live virus in the neutralisation assay) (human respiratory syncytial virus, strain A2) (P03420 26-574): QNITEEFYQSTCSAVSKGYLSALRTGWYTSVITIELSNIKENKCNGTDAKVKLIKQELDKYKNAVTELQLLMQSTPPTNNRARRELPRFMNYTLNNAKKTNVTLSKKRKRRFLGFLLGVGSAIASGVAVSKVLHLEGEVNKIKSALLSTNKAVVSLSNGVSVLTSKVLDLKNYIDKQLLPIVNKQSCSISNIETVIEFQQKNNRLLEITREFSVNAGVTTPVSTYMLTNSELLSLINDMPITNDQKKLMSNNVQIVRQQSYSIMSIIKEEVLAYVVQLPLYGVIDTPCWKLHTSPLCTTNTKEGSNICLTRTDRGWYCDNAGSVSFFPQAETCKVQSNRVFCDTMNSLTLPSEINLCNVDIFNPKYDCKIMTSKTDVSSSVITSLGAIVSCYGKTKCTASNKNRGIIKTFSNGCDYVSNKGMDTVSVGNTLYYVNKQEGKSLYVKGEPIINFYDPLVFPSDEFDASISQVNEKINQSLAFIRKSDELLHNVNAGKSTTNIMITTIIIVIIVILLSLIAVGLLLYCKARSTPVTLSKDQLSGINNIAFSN
Sequence of recombinant RSV-F protein (RSV A2 strain fusion (F) protein with added His tag) (human respiratory syncytial virus, A2 strain) (P03420 26-109, chain 1 of 2): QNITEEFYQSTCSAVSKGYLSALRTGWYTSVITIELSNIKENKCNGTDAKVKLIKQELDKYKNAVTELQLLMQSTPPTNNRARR
Sequence of recombinant RSV-F protein (RSV A2 strain fusion (F) protein with added His tag) (human respiratory syncytial virus, A2 strain) (P03420 137-524, chain 2 of 2): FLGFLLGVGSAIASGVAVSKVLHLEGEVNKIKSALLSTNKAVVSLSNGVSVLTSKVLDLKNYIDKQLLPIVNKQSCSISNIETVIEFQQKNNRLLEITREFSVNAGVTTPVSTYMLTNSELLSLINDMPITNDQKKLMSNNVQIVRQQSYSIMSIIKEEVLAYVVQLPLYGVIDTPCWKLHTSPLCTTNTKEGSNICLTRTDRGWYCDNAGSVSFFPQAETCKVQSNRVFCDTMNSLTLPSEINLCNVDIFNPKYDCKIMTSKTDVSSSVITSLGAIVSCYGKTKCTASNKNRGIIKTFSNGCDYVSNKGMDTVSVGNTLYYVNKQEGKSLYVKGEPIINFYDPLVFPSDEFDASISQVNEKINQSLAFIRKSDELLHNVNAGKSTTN

Palivizumab (antibody)
Absolute IC50, neutralizing RSV A Long (HEp-2 cells, indirect ELISA) [1]: 0.232 µg/mL | Absolute IC50, neutralizing RSV A2 (HEp-2 cells, indirect ELISA) [2]: 1.06 µg/mL | Absolute IC50, neutralizing RSV B9320 (HEp-2 cells, indirect ELISA) [3]: 1.07 µg/mL | Absolute IC50, neutralizing RSV A Long (HEp-2 cells, indirect ELISA) [4]: 1.59 µg/mL | Absolute IC50, neutralizing RSV A2 (HEp-2 cells, indirect ELISA) [5]: 3.04 µg/mL | Absolute IC50, neutralizing RSV B9320 (HEp-2 cells, indirect ELISA) [6]: 0.481 µg/mL | kon [7]: 1.2e+06 M⁻¹ s⁻¹ | Kd [8]: 0.0628 nM
